B1: CL-83083 Fab fragment (Fab, V domains shown)
VH: EVQLVESGGGLVQPGGSLKLSCAASGFTFSGSAMHWVRQASGKGLEWVGRIRSKANKYATAYAASVKGRFTISRDDSKNTAYVQMKSLKTEDTAVYYCTWELSNYDILTGFYYGMDVWGQGTTVTVSS
VL: QAGLTQPPSVSKGLRQTATLTCTGNSNNVGNLGAAWLQQHQGHPPKLLSYRNNNRPSGISERFFASRSGNTASLTITGLQPEDEADYYCSAWDSSLSAWVFGGGTKLTVL
notes: Purified Fab fragment
B2: CL-82558 Fab fragment (Fab, V domains shown)
VH: QVQLQESGPGLVKPSQTLSLTCTVSGGSISSGGYYWSWIRQVPGKGLEWIGYISYSGNTFYSPSLKSRVTISVDTSENKFSLRLTSVTAADTAVYFCARDRRIPMLRGVKGYYYGLDVWGQGTTVTVSS
VL: DIVMTQSPLSLPVIPGEPASISCRSSQSLLHRNGYKYLDWYLQKPGQSPQLLIYLGSNRASGVPARFSGSGSGTDFTLKISRVEAEDVGVYYCMQALQTPWTFGQGTKVEIK
notes: Purified Fab fragment
B3: CL-82458 Fab fragment (Fab, V domains shown)
VH: EVQLVESGGDLVQPGGSLRLSCAASGFTFYSYAMNWVRQAPGKGLKWVSGISGSGDITYYADSVKGRFTISRDNSKNTLYLQMHSLRPEDTAIYYCAKGQLERRYYKYYGMDVWGQGTTVTVSS
VL: DIQMTQSPSSLSASVGDRVTITCRANQGIRNDLGWYQQKPGKAPKRLIYGASSLKSGVPSRFSGSGSGTEFTLTISSLQPEDFATYYCLQQNSYPLTFGGGTKVEIK
notes: Purified Fab fragment
B4: CL-82658 Fab fragment (Fab, V domains shown)
VH: QVQLVESGGGVVQPGRSLRLSCAASGFSFSSYGMHWVRQAPGKGLEWVAVISYDGSNKYYADSVKGRFTISRDNSKNTLYLQMNSLRGEDTAVYYCSKGSLTPRRGYYYSYGMDVWGQGTTVTVSS
VL: DIQMTQSPSSLSASVGDRVTITCRASQGIRNDLSWYQQKPGKAPKRLIYAASSLQSGVPSRFSGSGSGTEFTLTISSLQPEDFATYYCLQHNGYPFTFGPGTKVDIK
notes: Purified Fab fragment
B5: CL-82574 Fab fragment (Fab, V domains shown)
VH: QVQLVESGGGVVQPGRSLRLSCAASGFTFYSYGMHWVRQAPGKGLEWVAVIWYGGTNKYYADSVKGRFTISRDNSKNTLYLQMNSLTAEDTAVYYCARGQLERRRGGLNIWGQGTVVTVSS
VL: DIQMTQSPSSLSASVGDRVTITCRASQGVRDDLGWYQQKPGKAPKRLIYAASSLQSGVPSRFSGSGSGTEFTLTISSLQPEDFATYYCLQHNSYPFTFGPGTKVDIK
notes: Purified Fab fragment

This assay deals with T1, biotinylated CXCR4-virus like particle (Integral Molecular, Lot INT-1793B) (human, UniProt P61073 1-352, VLP biotinylated, sites not stated).
T1 construct: also called hCXCR4 VLP; CXCR4 VLP
T1 sequence (P61073 whole entry): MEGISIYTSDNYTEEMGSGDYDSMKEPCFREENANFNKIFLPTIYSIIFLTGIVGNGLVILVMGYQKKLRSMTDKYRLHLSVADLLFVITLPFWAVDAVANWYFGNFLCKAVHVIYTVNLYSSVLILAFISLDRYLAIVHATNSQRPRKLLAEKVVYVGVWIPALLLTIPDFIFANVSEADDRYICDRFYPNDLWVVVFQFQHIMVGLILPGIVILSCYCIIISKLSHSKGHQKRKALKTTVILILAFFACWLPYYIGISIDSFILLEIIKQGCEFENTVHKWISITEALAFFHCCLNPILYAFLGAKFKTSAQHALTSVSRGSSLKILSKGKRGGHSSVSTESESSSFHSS
Description: SPR (Biacore 8K), biotinylated CXCR4 VLP captured on SA chip, Fab as analyte, 25 C, 1:1 model. Background: Surface plasmon resonance follows binding to a sensor surface in real time, without labels.
As to B1, the Kd (usually a measure of binding affinity in units of concentration) came to 1.86 nM; the koff (commonly the rate constant with which the complex falls apart) came to 0.00102 s⁻¹; the kon (as a rule, the second-order rate constant of association) worked out at 546000 M⁻¹ s⁻¹.

As for B2, the Kd came out at 0.67 nM, the koff was determined as 0.00155 s⁻¹ and the kon was determined as 2.32e+06 M⁻¹ s⁻¹.

As to B3, the affinity, expressed as Kd, was 1.26 nM; the koff was determined as 0.00111 s⁻¹; the kon was 887000 M⁻¹ s⁻¹.

B4 came in with a Kd of 0.69 nM, a koff of 0.000423 s⁻¹ and a kon of 616000 M⁻¹ s⁻¹.

The molecule B5 had a Kd of 0.52 nM, a koff of 0.000481 s⁻¹ and a kon of 927000 M⁻¹ s⁻¹.

The record behind these values is patent US20240294651A1 (KYMAB, published 2024).
